In data set [1] the test system is HeLa Kyoto. Briefly: melting temperature (median over replicates), in situ; higher = more thermally stable.
Data set [2] deals with HeLa Kyoto. Briefly: solubility change mitosis vs G1/S (difference of NP-40 vs SDS log2 ratios) (log2 ratio difference); higher = more soluble in mitosis.
Data set [3] concerns HeLa Kyoto. Kind of data set: solubility in G1/S (NP-40 vs SDS abundance) (log2 ratio); higher = more soluble. The note with it: cell cycle stage: G1/S.
Data set [4] has as its system HeLa Kyoto. Kind of data set: thermal stability score vs G1/S (z-score of summed log2 fold changes over temperatures); higher = more thermally stable than in G1/S.
Setting [5] is: cell cycle stage: early G1 (4.5 h after nocodazole release).
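Throughout, for melting temperature (median over replicates), in situ: HeLa Kyoto cells synchronized by double thymidine or nocodazole block, proteins quantified by TMT10plex mass spectrometry, three independent biological replicates.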
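Throughout, for solubility change mitosis vs G1/S (difference of NP-40 vs SDS log2 ratios): synchronized HeLa Kyoto cells (double thymidine block for G1/S, nocodazole release for mitosis), protein amounts in NP-40 versus SDS lysates quantified by mass spectrometry, three biological replicates.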
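Throughout, for solubility in G1/S (NP-40 vs SDS abundance): HeLa Kyoto cells arrested at G1/S by double thymidine block, proteins quantified by TMT10plex mass spectrometry in mild NP-40 versus SDS extracts, three biological replicates.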
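Throughout, for thermal stability score vs G1/S (z-score of summed log2 fold changes over temperatures): synchronized HeLa Kyoto cells, proteins quantified by TMT10plex mass spectrometry, three biological replicates, mitosis taken 0.5 h after nocodazole release, G1/S directly after double thymidine block.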

Consider “MDLSGVKKKSLLGVKENNKKSSTRAPSPTKRKDRSDEKSKDRSKDKGATKESSEKDRGRDKTRKRRSASSGSSSTRSRSSSTSSSGSSTSTGSSSGSSSSSASSRSGSSSTSRSSSSSSSSGSPSPSRRRHDNRRRSRSKSKPPKRDEKERKRRSPSPKPTKVHIGRLTRNVTKDHIMEIFSTYGKIKMIDMPVERMHPHLSKGYAYVEFENPDEAEKALKHMDGGQIDGQEITATAVLAPWPRPPPRRFSPPRRMLPPPPMWRRSPPRMRRRSRSPRRRSPVRRRSRSPGRRRHRSRSSSNSSR [RNPS1]”, for which the values for the melting temperature in the data set with HeLa Kyoto [1] (cell cycle stage: G1/S) and in the data set with HeLa Kyoto [1] (cell cycle stage: mitosis) were 48.9 °C and 50 °C, respectively. Also, the “solubility change mitosis (log2)” value in the data set on HeLa Kyoto [2] came to 0.52. In addition, in the data set with HeLa Kyoto [3], the “solubility in G1/S (log2)” value is -0.501. Further, the thermal stability score in the data set on HeLa Kyoto [4] (setting [5]) was determined as 0.608; in the data set on HeLa Kyoto [4] (cell cycle stage: mitosis), 1.88.
As for “MDNLSDTLKKLKITAVDKTEDSLEGCLDCLLQALAQNNTETSEKIQASGILQLFASLLTPQSSCKAKVANIIAEVAKNEFMRIPCVDAGLISPLVQLLNSKDQEVLLQTGRALGNICYDSHEGRSAVDQAGGAQIVIDHLRSLCSITDPANEKLLTVFCGMLMNYSNENDSLQAQLINMGVIPTLVKLLGIHCQNAALTEMCLVAFGNLAELESSKEQFASTNIAEELVKLFKKQIEHDKREMIFEVLAPLAENDAIKLQLVEAGLVECLLEIVQQKVDSDKEDDITELKTGSDLMVLLLLGDESMQKLFEGGKGSVFQRVLSWIPSNNHQLQLAGALAIANFARNDANCIHMVDNGIVEKLMDLLDRHVEDGNVTVQHAALSALRNLAIPVINKAKMLSAGVTEAVLKFLKSEMPPVQFKLLGTLRMLIDAQAEAAEQLGKNVKLVERLVEWCEAKDHAGVMGESNRLLSALIRHSKSKDVIKTIVQSGGIKHLVTMATSEHVIMQNEALVALALIAALELGTAEKDLESAKLVQILHRLLADERSAPEIKYNSMVLICALMGSECLHKEVQDLAFLDVVSKLRSHENKSVAQQASLTEQRLTVES [RAP1GDS1]”, the melting temperature in the data set on HeLa Kyoto [1] (cell cycle stage: G1/S) is 50.2 °C; with HeLa Kyoto [1] (cell cycle stage: mitosis), 49.8 °C. In addition, in the data set on HeLa Kyoto [2], the “solubility change mitosis (log2)” value was -0.0374. The “solubility in G1/S (log2)” value in the data set on HeLa Kyoto [3] was 0.111. In addition, the thermal stability score with HeLa Kyoto [4] (setting [5]) was 1.29; in the data set on HeLa Kyoto [4] (cell cycle stage: mitosis), 1.87.
In the case of “MDNYADLSDTELTTLLRRYNIPHGPVVGSTRRLYEKKIFEYETQRRRLSPPSSSAASSYSFSDLNSTRGDADMYDLPKKEDALLYQSKGYNDDYYEESYFTTRTYGEPESAGPSRAVRQSVTSFPDADAFHHQVHDDDLLSSSEEECKDRERPMYGRDSAYQSITHYRPVSASRSSLDLSYYPTSSSTSFMSSSSSSSSWLTRRAIRPENRAPGAGLGQDRQVPLWGQLLLFLVFVIVLFFIYHFMQAEEGNPF [EMD]”, the melting temperature came out at 52.4 °C in the data set with HeLa Kyoto [1] (cell cycle stage: G1/S) and 51.7 °C in the data set on HeLa Kyoto [1] (cell cycle stage: mitosis). In addition, the “solubility change mitosis (log2)” value with HeLa Kyoto [2] is 0.383. In the data set with HeLa Kyoto [3], the “solubility in G1/S (log2)” value was -0.273. In addition, the figures for the thermal stability score with HeLa Kyoto [4] (setting [5]) and in the data set on HeLa Kyoto [4] (cell cycle stage: mitosis) were -0.609 and -0.468, respectively.
Take “MDPLSELQDDLTLDDTSEALNQLKLASIDEKNWPSDEMPDFPKSDDSKSSSPELVTHLKWDDPYYDIARHQIVEVAGDDKYGRKIIVFSACRMPPSHQLDHSKLLGYLKHTLDQYVESDYTLLYLHHGLTSDNKPSLSWLRDAYREFDRKYKKNIKALYIVHPTMFIKTLLILFKPLISFKFGQKIFYVNYLSELSEHVKLEQLGIPRQVLKYDDFLKSTQKSPATAPKPMPPRPPLPNQQFGVSLQHLQEKNPEQEPIPIVLRETVAYLQAHALTTEGIFRRSANTQVVREVQQKYNMGLPVDFDQYNELHLPAVILKTFLRELPEPLLTFDLYPHVVGFLNIDESQRVPATLQVLQTLPEENYQVLRFLTAFLVQISAHSDQNKMTNTNLAVVFGPNLLWAKDAAITLKAINPINTFTKFLLDHQGELFPSPDPSGL [ARHGAP1]”: the melting temperature in the data set on HeLa Kyoto [1] (cell cycle stage: G1/S) and with HeLa Kyoto [1] (cell cycle stage: mitosis) was 51.4 °C each time. Moreover, the “solubility change mitosis (log2)” value in the data set with HeLa Kyoto [2] is -0.0609. Also, the “solubility in G1/S (log2)” value in the data set on HeLa Kyoto [3] is 0.473. For the same sequence, the thermal stability score was 0.517 in the data set on HeLa Kyoto [4] (setting [5]) and 0.431 in the data set with HeLa Kyoto [4] (cell cycle stage: mitosis).
On to “MDPNTIIEALRGTMDPALREAAERQLNEAHKSLNFVSTLLQITMSEQLDLPVRQAGVIYLKNMITQYWPDRETAPGDISPYTIPEEDRHCIRENIVEAIIHSPELIRVQLTTCIHHIIKHDYPSRWTAIVDKIGFYLQSDNSACWLGILLCLYQLVKNYEYKKPEERSPLVAAMQHFLPVLKDRFIQLLSDQSDQSVLIQKQIFKIFYALVQYTLPLELINQQNLTEWIEILKTVVNRDVPNETLQVEEDDRPELPWWKCKKWALHILARLFERYGSPGNVSKEYNEFAEVFLKAFAVGVQQVLLKVLYQYKEKQYMAPRVLQQTLNYINQGVSHALTWKNLKPHIQGIIQDVIFPLMCYTDADEELWQEDPYEYIRMKFDVFEDFISPTTAAQTLLFTACSKRKEVLQKTMGFCYQILTEPNADPRKKDGALHMIGSLAEILLKKKIYKDQMEYMLQNHVFPLFSSELGYMRARACWVLHYFCEVKFKSDQNLQTALELTRRCLIDDREMPVKVEAAIALQVLISNQEKAKEYITPFIRPVMQALLHIIRETENDDLTNVIQKMICEYSEEVTPIAVEMTQHLAMTFNQVIQTGPDEEGSDDKAVTAMGILNTIDTLLSVVEDHKEITQQLEGICLQVIGTVLQQHVLEFYEEIFSLAHSLTCQQVSPQMWQLLPLVFEVFQQDGFDYFTDMMPLLHNYVTVDTDTLLSDTKYLEMIYSMCKKVLTGVAGEDAECHAAKLLEVIILQCKGRGIDQCIPLFVEAALERLTREVKTSELRTMCLQVAIAALYYNPHLLLNTLENLRFPNNVEPVTNHFITQWLNDVDCFLGLHDRKMCVLGLCALIDMEQIPQVLNQVSGQILPAFILLFNGLKRAYACHAEHENDSDDDDEAEDDDETEELGSDEDDIDEDGQEYLEILAKQAGEDGDDEDWEEDDAEETALEGYSTIIDDEDNPVDEYQIFKAIFQTIQNRNPVWYQALTHGLNEEQRKQLQDIATLADQRRAAHESKMIEKHGGYKFSAPVVPSSFNFGGPAPGMN [IPO7]”, for which the results for the melting temperature with HeLa Kyoto [1] (cell cycle stage: G1/S) and with HeLa Kyoto [1] (cell cycle stage: mitosis) were 52.7 °C and 51.3 °C, respectively. Further, the “solubility change mitosis (log2)” value with HeLa Kyoto [2] was -0.133. Further, in the data set on HeLa Kyoto [3], the “solubility in G1/S (log2)” value was -0.0648. Also, the thermal stability score came to 1.18 in the data set with HeLa Kyoto [4] (setting [5]) and 3.75 with HeLa Kyoto [4] (cell cycle stage: mitosis).

Source of the values: the supplement of paper PMC5998384.
